Laboratory results reported in EP4786497A1 (Astellas Pharma Inc., dated 2026).
Numbering of substitutions follows the chain as printed. Each block holds one binder with its values, some of them ahead of it.

Legend:
human MerTK-His protein [1] = molecular target: T1, human MerTK-His protein (human, UniProt Q12866 21-505); assay: ELISA, human MerTK-His immobilized at 1 µg/mL
T1 construct: range 21-505; Made in ExpiCHO-S cells; also called protein of human MerTK fused with His tag
T1 sequence: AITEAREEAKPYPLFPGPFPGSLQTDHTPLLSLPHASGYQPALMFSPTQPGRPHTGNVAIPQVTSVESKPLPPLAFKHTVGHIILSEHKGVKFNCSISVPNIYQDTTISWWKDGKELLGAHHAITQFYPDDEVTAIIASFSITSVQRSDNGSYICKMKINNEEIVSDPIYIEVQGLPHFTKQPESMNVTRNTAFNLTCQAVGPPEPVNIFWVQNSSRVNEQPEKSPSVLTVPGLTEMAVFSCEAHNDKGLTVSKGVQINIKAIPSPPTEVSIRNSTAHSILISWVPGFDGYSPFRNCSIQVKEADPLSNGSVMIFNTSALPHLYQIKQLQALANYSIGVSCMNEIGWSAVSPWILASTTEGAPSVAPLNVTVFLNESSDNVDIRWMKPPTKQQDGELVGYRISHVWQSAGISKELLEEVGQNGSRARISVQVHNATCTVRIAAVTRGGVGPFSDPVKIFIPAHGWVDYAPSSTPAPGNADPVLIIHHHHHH

[2] = molecular target: T2, human MerTK-human Fc fusion protein (human, UniProt Q12866 21-505); assay: ELISA, MerTK protein immobilized at 1 µg/mL
T2 construct: range 21-505; Made in ExpiCHO-S cells; also called human MerTK-Fc protein; MerTK-Fc fusion protein; not shown: human IgG1 Fc as encoded by the pFUSE-hIgG1-Fc1 vector (InvivoGen)
T2 sequence (looked up): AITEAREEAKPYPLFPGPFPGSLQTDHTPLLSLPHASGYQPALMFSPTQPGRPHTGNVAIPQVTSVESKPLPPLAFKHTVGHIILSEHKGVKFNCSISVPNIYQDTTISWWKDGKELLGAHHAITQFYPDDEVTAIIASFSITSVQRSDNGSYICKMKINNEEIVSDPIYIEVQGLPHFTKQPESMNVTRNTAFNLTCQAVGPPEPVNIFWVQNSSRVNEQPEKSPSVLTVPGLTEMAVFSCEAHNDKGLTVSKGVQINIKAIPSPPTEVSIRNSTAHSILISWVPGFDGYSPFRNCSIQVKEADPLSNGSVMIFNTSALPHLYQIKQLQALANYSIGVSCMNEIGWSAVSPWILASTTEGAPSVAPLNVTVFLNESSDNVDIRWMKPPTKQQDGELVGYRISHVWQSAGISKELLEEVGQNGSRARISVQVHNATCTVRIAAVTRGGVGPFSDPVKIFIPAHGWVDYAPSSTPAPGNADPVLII

[3] = molecular target: T3, mouse MerTK-human Fc fusion protein (mouse; human, UniProt Q60805 19-497); assay: ELISA, MerTK protein immobilized at 1 µg/mL
T3 construct: range 19-497; Made in ExpiCHO-S cells; also called protein of mouse MerTK fused with human Fc; not shown: human IgG1 Fc as encoded by the pFUSE-hIgG1-Fc1 vector (InvivoGen)
T3 sequence (looked up): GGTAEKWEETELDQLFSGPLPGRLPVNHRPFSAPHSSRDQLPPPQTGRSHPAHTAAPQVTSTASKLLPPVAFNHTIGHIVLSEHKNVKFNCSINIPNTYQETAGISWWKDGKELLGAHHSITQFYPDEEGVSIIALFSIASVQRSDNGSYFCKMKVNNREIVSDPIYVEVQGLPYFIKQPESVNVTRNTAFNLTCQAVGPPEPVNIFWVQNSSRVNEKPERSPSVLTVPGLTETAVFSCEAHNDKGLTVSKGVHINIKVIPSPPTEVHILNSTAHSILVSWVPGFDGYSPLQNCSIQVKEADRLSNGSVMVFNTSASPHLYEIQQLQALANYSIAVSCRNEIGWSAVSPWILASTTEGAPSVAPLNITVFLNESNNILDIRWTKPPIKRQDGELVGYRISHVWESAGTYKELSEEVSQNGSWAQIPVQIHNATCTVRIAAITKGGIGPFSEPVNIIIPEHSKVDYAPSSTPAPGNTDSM

[4] = molecular target: T2, human MerTK-human Fc fusion protein; assay: ELISA, human MerTK-Fc immobilized at 1 µg/mL
[5] = molecular target: misfolding-treated recombinant human TTR V30M protein (human, UniProt P02766 21-147); assay: ELISA, misTTR immobilized at 2 µg/mL
human MerTK-His protein [6] = molecular target: T1, human MerTK-His protein; assay: ELISA, human MerTK-His immobilized, same method

B1: tA3-20 (antibody, human IgG1, lambda, L234A L235A)
heavy: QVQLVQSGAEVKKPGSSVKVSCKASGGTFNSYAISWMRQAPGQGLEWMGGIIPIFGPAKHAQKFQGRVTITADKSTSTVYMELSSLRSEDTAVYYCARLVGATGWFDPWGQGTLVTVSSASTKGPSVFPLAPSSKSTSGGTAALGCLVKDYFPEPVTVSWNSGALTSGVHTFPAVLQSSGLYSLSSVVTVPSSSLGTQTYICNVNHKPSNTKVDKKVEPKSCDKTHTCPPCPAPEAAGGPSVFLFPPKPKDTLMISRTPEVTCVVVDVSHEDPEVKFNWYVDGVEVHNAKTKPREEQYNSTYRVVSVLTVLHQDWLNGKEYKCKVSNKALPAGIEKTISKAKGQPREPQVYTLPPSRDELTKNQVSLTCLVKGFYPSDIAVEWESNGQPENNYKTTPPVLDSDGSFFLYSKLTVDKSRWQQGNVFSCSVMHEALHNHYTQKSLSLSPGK
light: FMLTQPHSVSESPGKTVNISCTRSSGSIATNYVQWYQQRPGSSPTTVIYEDNQRPSGVPDRFSGSIDSSSNSASLTISGLKTEDEAVYHCQSYDSSNVVFGGGTKLTVLGQPKAAPSVTLFPPSSEELQANKATLVCLISDFYPGAVTVAWKADSSPVKAGVETTTPSKQSNNKYAASSYLSLTPEQWKSHRSYSCQVTHEGSTVEKTVAPTECS
notes: human lambda constant region; also called fully human anti-MerTK antibody; anti-MerTK agonist antibody tA3-20
binding result (human MerTK-His protein [1]): binds
binding result [2]: binds
binding result [3]: binds

B3: tA3-20.1 (antibody, human IgG1, lambda, L234A L235A)
heavy: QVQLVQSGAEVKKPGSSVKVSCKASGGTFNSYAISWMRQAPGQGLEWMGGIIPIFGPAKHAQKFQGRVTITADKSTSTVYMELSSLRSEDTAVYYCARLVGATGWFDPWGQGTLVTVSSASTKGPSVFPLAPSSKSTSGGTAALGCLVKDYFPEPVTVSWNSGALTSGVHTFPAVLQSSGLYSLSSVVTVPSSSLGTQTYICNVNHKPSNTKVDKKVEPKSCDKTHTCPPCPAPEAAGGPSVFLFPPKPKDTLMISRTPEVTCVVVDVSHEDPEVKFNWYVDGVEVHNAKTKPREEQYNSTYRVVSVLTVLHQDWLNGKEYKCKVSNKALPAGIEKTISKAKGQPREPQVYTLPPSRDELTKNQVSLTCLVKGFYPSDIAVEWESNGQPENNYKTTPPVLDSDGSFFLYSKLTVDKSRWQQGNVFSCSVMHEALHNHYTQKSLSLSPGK
light: B1 light with N18T
binding result (human MerTK-His protein [1]): binds

B5: tA3-20.3 (antibody, human IgG1, lambda, L234A L235A)
heavy: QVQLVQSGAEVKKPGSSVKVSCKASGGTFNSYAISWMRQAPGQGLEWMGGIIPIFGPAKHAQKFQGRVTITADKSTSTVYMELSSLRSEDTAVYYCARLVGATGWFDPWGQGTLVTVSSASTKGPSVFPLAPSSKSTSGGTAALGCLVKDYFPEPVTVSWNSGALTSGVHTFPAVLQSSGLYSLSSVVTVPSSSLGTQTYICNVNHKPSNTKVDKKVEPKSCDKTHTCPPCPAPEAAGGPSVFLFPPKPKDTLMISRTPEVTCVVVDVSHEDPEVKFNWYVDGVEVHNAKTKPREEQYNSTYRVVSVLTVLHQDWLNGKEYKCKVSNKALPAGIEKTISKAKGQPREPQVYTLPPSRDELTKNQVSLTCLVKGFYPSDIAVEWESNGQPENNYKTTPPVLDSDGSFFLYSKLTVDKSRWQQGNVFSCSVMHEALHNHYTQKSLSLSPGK
light: NFMLTQPHSVSESPGKTVNISCTRSSGSIATNYVQWYQQRPGSSPTTVIYEDNQRPSGVPDRFSGSIDSSSNSASLTISGLKTEDEAVYHCQSYDSSNVVFGGGTKLTVLGQPKAAPSVTLFPPSSEELQANKATLVCLISDFYPGAVTVAWKADSSPVKAGVETTTPSKQSNNKYAASSYLSLTPEQWKSHRSYSCQVTHEGSTVEKTVAPTECS
binding result (human MerTK-His protein [6]): binds

B7: tA3-20.4 (antibody, human IgG1, lambda, L234A L235A)
heavy: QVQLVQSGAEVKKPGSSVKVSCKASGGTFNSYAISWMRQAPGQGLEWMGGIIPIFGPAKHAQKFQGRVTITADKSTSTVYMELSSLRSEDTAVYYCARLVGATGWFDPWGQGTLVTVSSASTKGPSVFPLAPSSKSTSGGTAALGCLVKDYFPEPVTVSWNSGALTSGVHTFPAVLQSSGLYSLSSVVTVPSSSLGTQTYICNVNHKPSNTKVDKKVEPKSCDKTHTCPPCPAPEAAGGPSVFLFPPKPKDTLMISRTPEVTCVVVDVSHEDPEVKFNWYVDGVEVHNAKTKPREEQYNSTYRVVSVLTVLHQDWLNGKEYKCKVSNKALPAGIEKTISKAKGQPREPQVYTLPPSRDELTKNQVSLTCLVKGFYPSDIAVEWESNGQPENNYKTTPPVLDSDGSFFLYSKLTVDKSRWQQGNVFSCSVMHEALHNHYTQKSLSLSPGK
light: B5 light with N19T
binding result (human MerTK-His protein [6]): binds

More lines, now with the values ahead:

binding result (human MerTK-His protein [1]): binds
B2: tA3-20.2 (antibody, human IgG1, lambda, L234A L235A)
heavy: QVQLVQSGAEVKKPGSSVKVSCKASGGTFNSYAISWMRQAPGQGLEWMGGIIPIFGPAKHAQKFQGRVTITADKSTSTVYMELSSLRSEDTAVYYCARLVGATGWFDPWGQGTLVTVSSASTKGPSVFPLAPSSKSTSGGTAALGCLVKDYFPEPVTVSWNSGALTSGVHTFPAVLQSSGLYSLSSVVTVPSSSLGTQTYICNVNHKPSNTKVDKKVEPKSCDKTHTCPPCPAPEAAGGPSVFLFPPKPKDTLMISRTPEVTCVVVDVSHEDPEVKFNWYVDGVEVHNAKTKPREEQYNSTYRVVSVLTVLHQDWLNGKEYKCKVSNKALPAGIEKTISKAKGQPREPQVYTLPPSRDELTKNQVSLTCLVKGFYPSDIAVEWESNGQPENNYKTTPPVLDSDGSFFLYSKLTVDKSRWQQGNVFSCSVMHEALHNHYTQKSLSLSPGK
light: B1 light with N18S

binding result [4]: binds
binding result [5]: binds
B4: tA-009 (bispecific antibody, mouse IgG2a)
heavy: QVQLVQSGAEVKKPGSSVKVSCKASGGTFNSYAISWMRQAPGQGLEWMGGIIPIFGPAKHAQKFQGRVTITADKSTSTVYMELSSLRSEDTAVYYCARLVGATGWFDPWGQGTLVTVSSAKTTAPSVYPLAPVCGDTTGSSVTLGCLVKGYFPEPVTLTWNSGSLSSGVHTFPAVLQSDLYTLSSSVTVTSSTWPSQSITCNVAHPASSTKVDKKIEPRGPTIKPCPPCKCPAPNAAGGPSVFIFPPKIKDVLMISLSPIVTCVVVDVSEDDPDVQISWFVNNVEVHTAQTQTHREDYNSTLRVVSALPIQHQDWMSGKEFKCKVNNKDLAAPIERTISKPKGSVRAPQVYVLPPPEKEMTKKQVSLTCLVKDFMPEDIYVEWTNNGKTELNYKNTEPVLKSDGSYFMYSKLTVEKKNWVERNSYSCSVVHEGLHNHHTTKSFSRTPGK
light: NFMLTQPHSVSESPGKTVNISCTRSSGSIATNYVQWYQQRPGSSPTTVIYEDNQRPSGVPDRFSGSIDSSSNSASLTISGLKTEDEAVYHCQSYDSSNVVFGGGTKLTVLGQPKSSPSVTLFPPSSEELETNKATLVCTITDFYPGVVTVDWKVDGTPVTQGMETTQPSKQSNNKYMASSYLTLTARAWERHSSYSCQVTHEGHTVEKSLSRADCS
chain: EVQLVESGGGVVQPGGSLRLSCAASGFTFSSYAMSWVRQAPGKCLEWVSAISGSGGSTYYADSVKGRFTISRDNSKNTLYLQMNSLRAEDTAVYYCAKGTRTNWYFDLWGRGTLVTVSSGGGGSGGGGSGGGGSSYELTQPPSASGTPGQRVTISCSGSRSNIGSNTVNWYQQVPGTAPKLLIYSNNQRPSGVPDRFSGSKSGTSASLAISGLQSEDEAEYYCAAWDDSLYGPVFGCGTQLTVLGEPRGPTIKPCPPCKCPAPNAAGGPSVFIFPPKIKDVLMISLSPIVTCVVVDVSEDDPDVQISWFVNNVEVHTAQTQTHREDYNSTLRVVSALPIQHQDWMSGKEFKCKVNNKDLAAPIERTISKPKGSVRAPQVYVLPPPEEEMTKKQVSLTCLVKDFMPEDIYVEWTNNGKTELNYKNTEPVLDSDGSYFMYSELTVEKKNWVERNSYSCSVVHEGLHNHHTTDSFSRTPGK
notes: also called mouse-type anti-MerTK-anti-TTR bispecific antibody

binding result (human MerTK-His protein [6]): binds
B6: tA3-20.5 (antibody, human IgG1, lambda, L234A L235A)
heavy: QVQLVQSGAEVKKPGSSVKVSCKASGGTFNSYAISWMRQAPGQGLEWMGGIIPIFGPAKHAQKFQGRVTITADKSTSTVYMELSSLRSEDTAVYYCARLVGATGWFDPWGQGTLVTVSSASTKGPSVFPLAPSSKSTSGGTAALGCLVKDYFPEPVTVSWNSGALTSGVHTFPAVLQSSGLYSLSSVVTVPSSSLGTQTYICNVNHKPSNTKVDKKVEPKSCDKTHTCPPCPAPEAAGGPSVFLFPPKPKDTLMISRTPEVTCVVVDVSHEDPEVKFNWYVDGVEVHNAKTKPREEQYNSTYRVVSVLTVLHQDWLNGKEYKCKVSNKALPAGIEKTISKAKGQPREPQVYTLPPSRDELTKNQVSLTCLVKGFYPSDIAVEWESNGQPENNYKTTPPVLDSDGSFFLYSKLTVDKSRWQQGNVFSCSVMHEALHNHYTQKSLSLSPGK
light: B5 light with N19S
